Measured values from patent US5534409, “Cytokine regulated transcription factor” (Ciba-Geigy Corporation).

Target: T1, MGF (mammary gland factor, STAT5), native from lactating mammary gland (Ovis aries, UniProt P42231 SEQ:1-794)
T1 chain: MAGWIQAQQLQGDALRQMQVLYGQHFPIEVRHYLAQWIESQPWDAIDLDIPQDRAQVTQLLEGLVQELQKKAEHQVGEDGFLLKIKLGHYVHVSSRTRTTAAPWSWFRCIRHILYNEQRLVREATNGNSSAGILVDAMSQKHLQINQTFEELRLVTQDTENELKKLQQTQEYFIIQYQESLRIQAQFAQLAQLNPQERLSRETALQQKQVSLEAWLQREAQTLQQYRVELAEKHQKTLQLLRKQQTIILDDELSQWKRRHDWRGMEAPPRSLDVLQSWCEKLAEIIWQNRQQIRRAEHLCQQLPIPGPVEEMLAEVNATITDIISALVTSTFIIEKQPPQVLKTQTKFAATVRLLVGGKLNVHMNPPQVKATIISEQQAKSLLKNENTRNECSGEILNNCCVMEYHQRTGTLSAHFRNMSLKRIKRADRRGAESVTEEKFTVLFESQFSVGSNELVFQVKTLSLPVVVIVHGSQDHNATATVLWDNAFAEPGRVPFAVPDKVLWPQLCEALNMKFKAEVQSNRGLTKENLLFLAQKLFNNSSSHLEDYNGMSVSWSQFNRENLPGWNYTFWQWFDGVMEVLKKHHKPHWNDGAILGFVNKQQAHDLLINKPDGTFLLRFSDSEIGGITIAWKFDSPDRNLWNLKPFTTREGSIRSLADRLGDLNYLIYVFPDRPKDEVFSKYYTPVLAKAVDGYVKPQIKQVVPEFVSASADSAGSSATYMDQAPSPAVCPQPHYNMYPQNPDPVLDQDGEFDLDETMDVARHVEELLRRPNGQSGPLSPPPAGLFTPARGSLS
Test: EMSA; binds more efficiently than rat site; also used for DNA affinity column, eluted at 600 mM NaCl; binding abolished by tyrosine phosphatase PTP1B, not by PP1C or
Conditions: tags: none; 84 and 92 kDa bands, tyrosine phosphorylated

B1: bovine beta-casein MGF site (dsDNA)
DNA 1: AGATTTCTAGGAATTCAATCC
DNA 2: GGATTGAATTCCTAGAAATCT
- binding result: binds
